In US20220056112A1 (YUROGEN BIOSYSTEMS, published 2022):
Residue numbers refer to the chain shown, from its start.

B1: rabbit monoclonal antibody 1G7 against the SARS-CoV-2 nucleocapsid protein (antibody, V domains shown)
VH: QQQVVESGGGLVKPGASLTLTCEASGFSFSSGYDMCWVRQAPGKGLEWIACIYPGSSGNTYYASWAKGRFTISKTSSTTVTLQMTSLTAADTATYFCARTYASSSGDYIPYFFNLWGPGTLVTVSS
VL: DIVMTQTPASVEAAVGGTVTIKCQASENIYSGLAWYQQKPGQPPKLLIYDASDLASGVPSRFKGSGSGTEYTLTISDLECADAATYYCQNYYYSSRGFNTFGGGTEVVVKG
B2: rabbit monoclonal antibody 1F8 against the SARS-CoV-2 nucleocapsid protein (antibody, V domains shown)
VH: QEHLEESGGGLVKPGASLTLTCTASGFSLSNNYWICWVRQAPGKGLEWIACIYTGRDYTYYTSWAKGRFTISKTSSTTVTLQLNSLTAADTATYFCARNNTDYGDYWDLWGPGTLVTVSS
VL: AQVLTQTASPVSVAVGDTVTINCQASQSVYKNNYLAWYQLKPGQPPKLLIYWGTKLPSGVPSRFKGSGSGTHFTLTISDVQCDDAATYYCLGSYDCTIAECNVFGGGTEVVVEG
B3: rabbit monoclonal antibody 5B4 against the SARS-CoV-2 nucleocapsid protein (antibody, V domains shown)
VH: QSLEESGGGLVKPGGTLTLTCTVSGLSLSTNAPNWVRQAPGKGLEWIGTIFIDDEDTYYASWAKGRFTISKTSSTTITLKMTSLTAADTATYFCARNSDLWDPGTLVVVSS
VL: AQVLTQTPSPVSAAVGGTVTINCQASQSVYNNNYLSWFQQKPGQPPKLLIYKASTLASGVSSRFKGSGSGTQFTLTISDVQCDDAATYFCLGSYDCRSANCIVFGGGTEVVVKG
B4: rabbit monoclonal antibody 5B12 against the SARS-CoV-2 nucleocapsid protein (antibody, V domains shown)
VH: QSLEESGGDLVQPEGTLTLTCTASGFSFFYDYYMCWVRQAPGKGLEWIGCIYGASGDTYYASWAKGRFTISKTSSTTVTLRMTSLTAADTATYFCARDVDTGSGIDFELWGPGTLVTVSS
VL: AYDMTQTPASVEVAVGGTVTIKCQASQSIGSYLSWYQQKPGQPPKLLIYSTSTLASGVPSRFKGSGSGTQFTLTISGVECADAATYYCQQGDTNHNIDNIFGGGTEVVVEG
B5: rabbit monoclonal antibody 6H7 against the SARS-CoV-2 nucleocapsid protein (antibody, V domains shown)
VH: QQQLEESGGGLVQPGGSLTLSCKASGFNVNSDCYMCWVRQAPGKGLEWIGCIDTVSGSTYYATWAKGRFTISKTSSTTVTLQMTSLTAADTATYFCARDFLYNVNNAGDIMDLWGPGTLVTVSL
VL: AQVLTQTPSSVSAAVGGTVTINCQSSYNVYNNNYLAWYQQKPGQPPKLLIYTTSTLASGVPSRFSGSGSGTQFTLTISDLECDDAAIYYCQGYYRGPVNDFGGGTEVVVEG
B6: rabbit monoclonal antibody 11B12 against the SARS-CoV-2 nucleocapsid protein (antibody, V domains shown)
VH: QQQLEESGGGLVKPGGTLTLTCTVSGLSLSSNTLNWVRQAPGKGLEWIGTIFIDDEDTYYASWAKGRFTISKTSSTTITLKMTSLTAADTATYFCARSSDLWDPGTLVVVSS
VL: B3 VL with P10S, N31K, K52Q, T55K
B7: rabbit monoclonal antibody 3A7 against the SARS-CoV-2 nucleocapsid protein (antibody, V domains shown)
VH: QEQLEESGGGLVQPEGSLTLTCTASGFSLSDSAYMCWVRQAPGKGLEWIACIDAGVSGSTYYASWVNGRFTISKTSSTTVTLQMTSLTVADTATYFCARDFLYTPNNAGDIMDLWGPGTLVTVSL
VL: B5 VL with Y27H, N28T, N31S, A36S, T52S, T53A, T55S, S65K, Q91H, Y94W

What was measured:
[1] = target: T1, nucleocapsid protein of SARS-CoV-2 (SARS-CoV-2, UniProt P0DTC9 1-419)
[2] = target: T1, nucleocapsid protein of SARS-CoV-2; remark: listed apart in the source

| Binder | EC50 (read off the curve) [1] | Kd [2] | koff [2] | kon [2] |
| --- | --- | --- | --- | --- |
| B1 | ~10 ng/mL | 8.14 nM | 9.87e-05 s⁻¹ | 12100 M⁻¹ s⁻¹ |
| B2 | – | 2.29 nM | 0.000206 s⁻¹ | 90200 M⁻¹ s⁻¹ |
| B3 | – | 0.717 nM | 0.000261 s⁻¹ | 364000 M⁻¹ s⁻¹ |
| B4 | – | 1.89 nM | 8.29e-05 s⁻¹ | 44000 M⁻¹ s⁻¹ |
| B5 | – | 0.674 nM | 0.000238 s⁻¹ | 354000 M⁻¹ s⁻¹ |
| B6 | – | 0.0565 nM | 2.63e-05 s⁻¹ | 465000 M⁻¹ s⁻¹ |
| B7 | – | 1.22 nM | 0.000272 s⁻¹ | 224000 M⁻¹ s⁻¹ |
